The target in the test is T1, Aurora-A kinase domain 122-403 C290A,C393A (UniProt O14965 122-403, C290A | C393A).
T1 construct: Aurora-A Ser/Thr kinase, kinase domain, residues 122-403
T1 sequence (looked up): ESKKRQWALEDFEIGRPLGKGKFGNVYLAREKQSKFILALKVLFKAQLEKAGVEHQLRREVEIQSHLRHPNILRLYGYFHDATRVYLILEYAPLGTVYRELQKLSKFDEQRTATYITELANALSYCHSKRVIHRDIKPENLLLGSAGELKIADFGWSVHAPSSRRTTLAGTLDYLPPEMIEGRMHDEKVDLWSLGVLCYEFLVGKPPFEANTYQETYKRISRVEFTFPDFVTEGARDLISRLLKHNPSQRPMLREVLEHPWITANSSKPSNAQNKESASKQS
Briefly: NMR titration; 1H-15N HSQC of 15N-labelled N-myc constructs (150-315 uM); aliquots of Aurora-A (305-400 uM) added up to [N-myc]:[Aurora-A] 1:1.4; 20 mM (K/H)3PO4 pH 6.5, 150 mM NaCl, 2 mM beta-mercaptoethanol, 1% glycerol, 5 mM MgCl2, 5 mM ADP. Conditions: both partners purified.

The results in this text go back to publication doi:10.1101/2024.05.22.595265 (bioRxiv, 2024).

B1: N-myc 64-137 (domain or fragment)
chain: GAMGSRGFAEHSSEPPSWVTEMLLENELWGSPAEEDAFGLGGLGGLTPNPVILQDCMWSGFSAREKLERAVSEKLQHG
notes: N-myc residues 64-137 (AIH and MBII); 15N-labelled; not shown: His-NusA, N-terminal, cleaved
With B1, the binding result was “binds”.

B2: N-myc transactivation domain, N-myc 1-137 (domain or fragment)
chain: GAMMPSCSTSTMPGMICKNPDLEFDSLQPCFYPDEDDFYFGGPDSTPPGEDIWKKFELLPTPPLSPSRGFAEHSSEPPSWVTEMLLENELWGSPAEEDAFGLGGLGGLTPNPVILQDCMWSGFSAREKLERAVSEKLQHG
notes: 15N-labelled for the NMR titration; also called N-myc TAD; N-myc_(1-137) TAD; not shown: His-NusA, N-terminal, cleaved
In the case of B2, the binding result is “binds”.
